In article doi:10.1101/2021.11.28.470279:

Target: ΔAPE1 E96Q/D210N (catalytically dead, crystallization construct) (Homo sapiens (human), UniProt P27695 44-318, C138A;E96Q;D210N)
Assay: crystal structure

Chain of ΔAPE1 E96Q/D210N (catalytically dead, crystallization construct) (P27695 44-318 E96Q/C138A/D210N): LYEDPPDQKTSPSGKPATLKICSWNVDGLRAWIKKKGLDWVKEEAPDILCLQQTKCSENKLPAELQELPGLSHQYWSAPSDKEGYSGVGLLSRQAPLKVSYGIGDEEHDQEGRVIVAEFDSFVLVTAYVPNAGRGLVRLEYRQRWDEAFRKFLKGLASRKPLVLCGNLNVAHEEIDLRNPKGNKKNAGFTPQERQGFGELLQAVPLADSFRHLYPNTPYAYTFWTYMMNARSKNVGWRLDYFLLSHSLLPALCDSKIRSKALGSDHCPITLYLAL

B1: 21-mer nicked 3'-8oxoG opposite C (crystal) (dsDNA)
DNA 1: GGATCCGTCGACCGCATCAGC
DNA 2: GCTGATGCGG
DNA 3: TCGACGGATCC
modifications: 8-oxoG at 3' end of upstream strand (strand 2, written G); 5'-phosphate on downstream strand (strand 3)
- binding result: binds
